This is an account of results in PMC6277709, “Lipid-Modified Azurin of Neisseria gonorrhoeae Is Not Surface Exposed and Does Not Interact With the Nitrite Reductase AniA” (Frontiers in Microbiology, 2018).

The data set concerns the molecule itself. As to the kind of experiment: cross-linking; in vivo: intact living N. gonorrhoeae (WT or Δlaz, grown under standard aerobic conditions) in PBS with 0, 0.1, 0.25 or 0.4 mM DSP, 37°C, 5% CO2, 30 min; quenched with 50 mM Tris-HCl pH 8.0; SDS-PAGE without reducing agent at 4°C; immunoblot with anti-BamA, anti-AniA or anti-Laz antiserum. On the technique in general: In western blotting, separated proteins are transferred to a membrane and probed.

One may read the stoichiometry N as a count of units in the complex or per binding partner.

B1: Nitrite reductase AniA of Neisseria gonorrhoeae FA1090, endogenous in living gonococci (enzyme)
chain: CGGEQAAQAPAETPAASAEAASSAAQATAETPAGELPVIDAVTTHAPEVPPAIDRDYPAKVRVKMETVEKTMKMDDGVEYRYWTFDGDVPGRMIRVREGDTVEVEFSNNPSSTVPHNVDFHAATGQGGGAAATFTAPGRTSTFSFKALQPGLYIYHCAVAPVGMHIANGMYGLILVEPKEGLPKVDKEFYIVQGDFYTKGKKGAQGLQPFDMDKAVAEQPEYVVFNGHVGSIAGDNALKAKAGETVRMYVGNGGPNLVSSFHVIGEIFDKVYVEGGKLINENVQSTIVPAGGSAIVEFKVDIPGSYTLVDHSIFRAFNKGALGQLKVEGAENPEIMTQKLSDTAYAGSGAASAPAASAPAASAPAASASEKSVY
notes: source: endogenous, living N. gonorrhoeae FA1090 (WT and Δlaz) cells
Consider B1, for which the “stoichiometry N” value was 3.
